Earlier results on one substance are cited in publication PMC8757841.

The data set concerns the target Transferrin receptor (Rattus norvegicus) (UniProt Q99376).

pKd: −log10 of the molar value.

Sequence of Transferrin (P12346 20-698): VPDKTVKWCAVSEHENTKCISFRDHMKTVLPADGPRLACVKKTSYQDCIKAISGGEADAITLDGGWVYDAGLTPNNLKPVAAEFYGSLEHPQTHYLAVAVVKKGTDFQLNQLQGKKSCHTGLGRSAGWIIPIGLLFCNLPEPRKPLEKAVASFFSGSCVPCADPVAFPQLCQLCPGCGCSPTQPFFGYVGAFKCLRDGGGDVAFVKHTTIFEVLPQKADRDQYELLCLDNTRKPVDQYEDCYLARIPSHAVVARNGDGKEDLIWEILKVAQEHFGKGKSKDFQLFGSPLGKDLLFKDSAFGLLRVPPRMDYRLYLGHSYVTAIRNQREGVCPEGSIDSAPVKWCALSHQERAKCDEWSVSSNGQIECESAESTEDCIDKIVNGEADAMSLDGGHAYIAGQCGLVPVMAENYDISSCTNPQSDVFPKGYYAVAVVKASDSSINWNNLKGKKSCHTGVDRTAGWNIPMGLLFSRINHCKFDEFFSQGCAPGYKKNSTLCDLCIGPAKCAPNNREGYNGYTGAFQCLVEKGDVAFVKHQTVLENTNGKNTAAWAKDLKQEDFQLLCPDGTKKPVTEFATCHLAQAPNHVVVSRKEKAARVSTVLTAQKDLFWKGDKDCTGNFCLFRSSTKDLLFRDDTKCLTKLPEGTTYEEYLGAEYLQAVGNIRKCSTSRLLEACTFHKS
Sequence of UniProt Q99376 (Q99376 whole entry): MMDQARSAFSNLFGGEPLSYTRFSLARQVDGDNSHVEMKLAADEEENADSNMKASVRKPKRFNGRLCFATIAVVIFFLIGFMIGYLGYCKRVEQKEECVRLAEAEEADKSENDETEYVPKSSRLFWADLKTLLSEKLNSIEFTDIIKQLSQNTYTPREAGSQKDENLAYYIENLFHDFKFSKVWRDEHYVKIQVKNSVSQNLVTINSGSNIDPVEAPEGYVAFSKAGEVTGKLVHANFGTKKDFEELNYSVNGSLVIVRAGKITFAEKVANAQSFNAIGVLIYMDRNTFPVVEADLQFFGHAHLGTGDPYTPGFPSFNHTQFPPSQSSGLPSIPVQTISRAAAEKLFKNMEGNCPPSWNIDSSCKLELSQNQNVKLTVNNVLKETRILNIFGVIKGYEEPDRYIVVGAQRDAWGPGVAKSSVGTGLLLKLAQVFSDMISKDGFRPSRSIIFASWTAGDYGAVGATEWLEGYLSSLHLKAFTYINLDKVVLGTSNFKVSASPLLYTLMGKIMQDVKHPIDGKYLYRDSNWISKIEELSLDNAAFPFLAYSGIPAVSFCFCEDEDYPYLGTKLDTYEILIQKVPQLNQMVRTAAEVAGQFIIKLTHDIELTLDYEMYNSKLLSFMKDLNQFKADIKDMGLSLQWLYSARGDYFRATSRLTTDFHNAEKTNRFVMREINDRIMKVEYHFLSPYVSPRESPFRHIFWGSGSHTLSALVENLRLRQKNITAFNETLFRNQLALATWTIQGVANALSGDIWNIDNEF

Take Transferrin (from UniProt P12346): the pKd (in general, the negative decadic logarithm of the Kd, by convention in mol/L) was 8.30.
